The record followed here is paper PMC8266636, “Rrp1 translocase and ubiquitin ligase activities restrict the genome destabilising effects of Rad51 in fission yeast” (Nucleic Acids Research, 2020).

For series [1], the target named is T1, Rrp1-FLAG (purified recombinant) (S. pombe, UniProt O13762 1-897).
T1 construct: Rrp1 of Schizosaccharomyces pombe, rrp1+ in pGEX-6P; only the former was removed'; read here as GST-Rrp1-3xFLAG; GST removed with HRV-3C protease; also called purified Rrp1-FLAG; FLAG-tagged Rrp1; source: E. coli Rosetta, from pGEX-6P, purified (GSH sepharose, HiTrap Heparin, Resource Q, HiTrap SP); not shown: GST, N-terminal, cleaved; 3xFLAG, C-terminal, kept
T1 sequence (looked up): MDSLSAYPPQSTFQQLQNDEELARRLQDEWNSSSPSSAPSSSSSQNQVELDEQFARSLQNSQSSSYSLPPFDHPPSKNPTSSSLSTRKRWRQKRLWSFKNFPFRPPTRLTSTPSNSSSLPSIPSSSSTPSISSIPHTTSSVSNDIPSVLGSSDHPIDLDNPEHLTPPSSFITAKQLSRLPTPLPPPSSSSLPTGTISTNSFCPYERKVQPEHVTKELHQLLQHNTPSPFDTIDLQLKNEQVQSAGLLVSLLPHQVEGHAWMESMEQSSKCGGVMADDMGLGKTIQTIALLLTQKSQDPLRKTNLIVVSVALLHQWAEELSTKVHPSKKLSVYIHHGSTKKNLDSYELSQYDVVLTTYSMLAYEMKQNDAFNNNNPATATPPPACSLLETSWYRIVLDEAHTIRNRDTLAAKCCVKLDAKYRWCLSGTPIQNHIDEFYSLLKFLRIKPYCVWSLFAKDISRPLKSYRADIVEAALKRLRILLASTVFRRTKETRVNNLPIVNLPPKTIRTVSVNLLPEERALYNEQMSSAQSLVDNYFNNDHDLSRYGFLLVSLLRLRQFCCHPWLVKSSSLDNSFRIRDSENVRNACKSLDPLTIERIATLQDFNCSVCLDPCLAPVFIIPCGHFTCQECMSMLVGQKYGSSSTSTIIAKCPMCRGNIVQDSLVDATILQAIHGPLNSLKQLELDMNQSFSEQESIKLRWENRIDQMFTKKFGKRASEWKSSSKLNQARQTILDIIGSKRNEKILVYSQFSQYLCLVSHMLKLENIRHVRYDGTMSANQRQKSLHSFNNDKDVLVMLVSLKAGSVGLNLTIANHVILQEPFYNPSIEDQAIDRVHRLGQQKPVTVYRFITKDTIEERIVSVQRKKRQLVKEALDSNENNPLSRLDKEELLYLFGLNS
The series can be described thus: co-IP; purified Rad51 and FLAG-tagged Rrp1 (250 nM each) in IP buffer (35 mM Tris-HCl pH 7.5, 1 mM DTT, 100 mM NaCl, 3.5 mM MgCl2, 0.1% NP-40, 5% glycerol), 30 min at 30°C; precipitated with anti-FLAG M2 affinity gel 2 h at 4°C, eluted with 3xFLAG peptide, western blot. Conditions: both partners purified. Background: Immunoblotting shows a protein as a band on a membrane.

Series [2] has as its target T2, Rrp1;Rad51 (Schizosaccharomyces …, UniProt O13762;P36601 1-897;1-365, |).
T2 sequence 1: T1 sequence (looked up)
T2 sequence 2: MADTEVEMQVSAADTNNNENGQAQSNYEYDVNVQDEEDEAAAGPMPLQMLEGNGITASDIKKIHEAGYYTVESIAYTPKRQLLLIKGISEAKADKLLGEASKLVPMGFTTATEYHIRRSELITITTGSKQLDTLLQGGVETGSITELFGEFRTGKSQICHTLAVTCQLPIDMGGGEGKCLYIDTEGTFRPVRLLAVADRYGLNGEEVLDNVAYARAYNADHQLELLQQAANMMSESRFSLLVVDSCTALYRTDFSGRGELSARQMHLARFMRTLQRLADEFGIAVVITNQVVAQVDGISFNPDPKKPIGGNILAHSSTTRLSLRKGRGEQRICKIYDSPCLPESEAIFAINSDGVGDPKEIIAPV
Description: fluorescence anisotropy; 2 mM ATP; 3.5 mM Mg2+; scavenger PhiX174 ssDNA; EMSA: 25 mM HEPES pH 7.5, 1 mM DTT, 60 mM KCl, 2 mM ATP, 3.5 mM MgCl2, 5% glycerol, 37 C, 0.2% glutaraldehyde; anisotropy: 30 mM HEPES pH 7.5, 1 mM DTT, 50 mM NaCl, 100 mM KCl, 2 mM ATP, 8 mM PC, 8 U/ml CPK, 3.5 mM MgCl2, 2.5% glycerol, 37 C. The settings on record: protein: recombinant;recombinant; tags: 3xFLAG (methods: N-terminal 3xFLAG and C-terminal GST, but construct named GST-Rrp1-FLAG); GST removed by HRV-3C;; single strand.

For series [3], the target named is T3, Rad51 (Schizosaccharomyces pombe, UniProt P36601 1-365).
T3 sequence: T2 sequence 2
The series can be described thus: fluorescence anisotropy; 2 mM ATP; 3.5 mM Mg2+; 6 uM Rad51; scavenger ssDNA for koff; EMSA: 25 mM HEPES pH 7.5, 1 mM DTT, 60 mM KCl, 2 mM ATP, 3.5 mM MgCl2, 5% glycerol, 37 C, 0.2% glutaraldehyde; anisotropy: 30 mM HEPES pH 7.5, 1 mM DTT, 50 mM NaCl, 100 mM KCl, 2 mM ATP, 8 mM PC, 8 U/ml CPK, 3.5 mM MgCl2, 2.5% glycerol, 37 C. Conditions: protein: recombinant; label: 5'-TAMRA on 16A(-); blunt. On the technique in general: Polarisation of emitted light reports the rotation of a fluorescent probe.

B1: Rad51 (purified) (natural protein, S. pombe, UniProt P36601 1-365, looked up)
chain: T2 sequence 2
notes: Rad51 of Schizosaccharomyces pombe; also called purified Rad51
Consider B1, for which, in series [1], the binding result was “binds”.

B2: oligo-dT 72-mer (ssDNA)
DNA: TTTTTTTTTTTTTTTTTTTTTTTTTTTTTTTTTTTTTTTTTTTTTTTTTTTTTTTTTTTTTTTTTTTTTTTT
As to B2, the binding result in series [2] is on record as “binds”.

B3: 16A(-)/16A(+) 83-mer dsDNA (dsDNA)
DNA 1: AAATGAACATAAAGTAAATAAGTATAAGGATAATACAAAATAAGTAAATGAATAAACATAGAAAATAAAGTAAAGGATATAAA
DNA 2: TTTATATCCTTTACTTTATTTTCTATGTTTATTCATTTACTTATTTTGTATTATCCTTATACTTATTTACTTTATGTTCATTT
Regarding B3, the binding result in series [3] is reported as “binds”.
